Test [1] has as its target T1, human TF on the cell surface of tumor cells (human, UniProt P13726 33-295). Nature of the test: cell-based or functional assay.
Test [2] deals with T1, human TF on the cell surface of tumor …. Kind of test: flow cytometry on U87MG cells. As to the method:
(§1) The cells were washed with PBS twice to remove the unbound primary antibody, and the target cells were incubated with 200 μL PE-labeled secondary antibody (2 μg/mL) at 4° C. for 30 min. The cells were washed with PBS twice to remove the unbound secondary antibody, and finally the cells were re-suspended in 400 μL PBS.

For test [3] the target is unchanged. Kind of test: flow cytometry on BxPC-3 cells. The procedure:
as §1

Test [4] concerns the target T2, extracellular domain of human TF protein (human, UniProt P13726 34-251).
T2 construct: range 34-251; Limits 34-251 are stated for the immunogen; also called the extracellular domain protein of TF; TF antigen
Nature of the test: ELISA, coated TF extracellular domain. The procedure:
The antigen (the extracellular domain protein of TF) was diluted to 0.5 μg/mL with a coating solution, and was used to coat an ELISA plate overnight, at 100 μL/well and 4° C. The excessive antigen was removed by washing. The plate was blocked with 2% BSA at room temperature for 2 h, and then each of the 3-fold serial diluted monoclonal antibodies was added at 100 μL/well, and was incubated for 2 h at room temperature. The unbound antibodies were removed by washing, and an appropriate concentration of horseradish peroxidase-labeled anti-mouse secondary antibody was added at 100 μL/well, and incubated for 1 h at room temperature. The unbound secondary antibody was removed by washing, TMB chromogenic solution was added, and the color was developed to an appropriate color depth. 2M H₂SO₄ was added at 50 μL/well, to stop the chromogenic reaction, the absorbance at 450 nm was then determined, and the data was analyzed.
Background: In an ELISA, binding on a coated surface is turned into a signal by an enzyme label.

The target of test [5] is T3, murine TF (B16-F10 cells) (murine, UniProt P20352 29-294).
T3 construct: whole, on cells
T3 sequence (looked up): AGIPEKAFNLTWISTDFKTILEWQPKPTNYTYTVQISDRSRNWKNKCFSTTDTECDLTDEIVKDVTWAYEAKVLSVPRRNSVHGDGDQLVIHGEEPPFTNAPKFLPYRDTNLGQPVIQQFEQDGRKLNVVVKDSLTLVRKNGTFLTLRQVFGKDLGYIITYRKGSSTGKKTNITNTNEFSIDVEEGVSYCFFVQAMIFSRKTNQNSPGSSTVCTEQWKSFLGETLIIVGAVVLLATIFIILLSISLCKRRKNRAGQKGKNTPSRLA
Nature of the test: flow cytometry on B16-F10 cells. (In flow cytometry, cells or beads pass a laser one at a time.)
Text: After preliminary screening, about 30 hybridoma cells were selected for secondary limiting dilution cloning, and then 6 antibodies were selected for large-scale expression and purification.

The target of test [6] is T1, human TF on the cell surface of tumor …. Nature of the test: flow cytometry on MDA-MB-231 cells.

Experimental findings from US20190177431A1 (FUDAN UNIVERSITY, published 2019) are described below.

In general, EC50 refers to the concentration at which the effect is half-maximal. Low values mean an effect from little substance, high ones a need for much substance.

B1: TF-mAb-SC1 (antibody, V domains shown)
VH: QVQLQQPGAELVRPGASVKLSCKASGYSFISYWMNWVKQRPGQGLEWIGMIYPADSETRLNQKFKDKATLTVDKSSSTAYMQLSSPTSEDSAVYYCAREDYGSSDYWGQGTTLTVSS
VL: EILLTQSPAIIAASPGEKVTITCSASSSVSYMNWYLQKPGSSPKIWIYGISNLASGVPARFSGSGSGTSFSFTINSMETEDVATYYCQQKSSFPWTFGGGTKLEIK
As for B1, in test [1], the “IC50 of inhibiting FXa production (BxPC-3 cells)” value turned out to be 9 nM. Further, the “IC50 of inhibiting FXa production (MDA-MB-231 cells)” value in test [1] amounted to 6.4 nM. For the same molecule, the EC50 in test [2] was 1.6 nM; in test [3] it was 2.6 nM; in test [4], approximately 0.019 nM; in test [6] it was 2.5 nM. Besides, the binding result in test [5] is listed as “no binding (tested: 10 µg/mL)”.
